Experimental data reported in article PMC3353895, “Crystal Structure of a Complex of DNA with One AT-Hook of HMGA1”.

Biological target: T1, HMGA1 third AT-hook (DBD3) peptide (UniProt P17096 81-89)
T1 chain: RKPRGRPKK
Assay: X-ray crystallography; crystals: 5 mM MgCl2, 0.25 mM NiCl2, MPD up to 48%; 1:2 duplex:peptide; 2.27 A; only one of two AATT sites occupied; Crystallization by vapor diffusion: 25 mM Tris-HCl pH 7.5, 25 mM ammonium acetate, 5 mM MgCl2, 0.25 mM NiCl2, 5% MPD (raised to 48%), 0.2 mM DNA, 0.4 mM peptide, 4 C
Details: blunt; self-complementary, 2 copies of the strand

B1: d(CGAATTAATTCG)2 (dsDNA)
DNA 1: CGAATTAATTCG
DNA 2: CGAATTAATTCG
binding result: binds
